Sequences and labels used below:
T1: SNTG2, Q9NY99
T1 sequence (Q9NY99 68-166, limits assumed, looked up): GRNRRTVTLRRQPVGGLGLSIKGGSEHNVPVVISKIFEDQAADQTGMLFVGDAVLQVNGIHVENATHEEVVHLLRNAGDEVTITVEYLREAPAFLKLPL

T2: APBA1_2, Q02410
T2 sequence (Q02410 742-832, limits assumed, looked up): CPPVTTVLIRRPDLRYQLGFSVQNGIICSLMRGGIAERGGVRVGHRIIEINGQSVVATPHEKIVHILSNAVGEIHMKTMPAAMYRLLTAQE

T3: APBA1_1, Q02410
T3 sequence (Q02410 651-752, limits assumed, looked up): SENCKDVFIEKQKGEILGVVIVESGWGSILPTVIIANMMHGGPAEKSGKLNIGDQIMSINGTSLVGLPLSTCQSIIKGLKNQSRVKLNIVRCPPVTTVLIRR

T4: MPP6, Q9NZW5
T4 sequence (Q9NZW5 125-219, limits assumed, looked up): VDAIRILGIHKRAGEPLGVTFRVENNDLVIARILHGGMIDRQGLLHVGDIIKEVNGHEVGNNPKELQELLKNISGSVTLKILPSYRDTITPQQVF

T5: PDZD7_3, Q9H5P4
T5 sequence (Q9H5P4 857-944, limits assumed, looked up): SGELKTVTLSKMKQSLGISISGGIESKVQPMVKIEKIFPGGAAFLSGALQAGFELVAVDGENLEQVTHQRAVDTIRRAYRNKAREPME

T6: MPP7, Q5T2T1
T6 sequence (Q5T2T1 134-230, limits assumed, looked up): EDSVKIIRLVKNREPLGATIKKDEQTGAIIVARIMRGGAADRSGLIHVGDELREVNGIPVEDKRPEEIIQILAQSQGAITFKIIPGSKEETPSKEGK

T7: GRIP1_4, Q9Y3R0
T7 sequence (Q9Y3R0 467-571, limits assumed, looked up): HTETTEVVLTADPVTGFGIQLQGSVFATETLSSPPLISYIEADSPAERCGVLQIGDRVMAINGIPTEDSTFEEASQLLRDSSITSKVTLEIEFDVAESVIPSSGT

T8: APBA2_2, Q99767
T8 sequence (Q99767 654-744, limits assumed, looked up): T2 sequence (Q02410 742-832, limits assumed, looked up) with R10K, R15K, P59A, H65Q, I66A, A70S, Y84F, A89G

T9: DFNB31_1, Q9P202
T9 sequence (Q9P202 135-233, limits assumed, looked up): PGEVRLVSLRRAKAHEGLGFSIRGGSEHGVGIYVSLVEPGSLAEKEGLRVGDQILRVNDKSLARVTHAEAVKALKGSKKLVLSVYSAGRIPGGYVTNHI

T10: ARHGEF11, O15085
T10 sequence (O15085 42-136, limits assumed, looked up): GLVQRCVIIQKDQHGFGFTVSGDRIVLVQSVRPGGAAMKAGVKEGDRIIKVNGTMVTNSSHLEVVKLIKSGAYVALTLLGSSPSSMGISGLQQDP

T11: DLG3_3, Q92796
T11 sequence (Q92796 374-475, limits assumed, looked up): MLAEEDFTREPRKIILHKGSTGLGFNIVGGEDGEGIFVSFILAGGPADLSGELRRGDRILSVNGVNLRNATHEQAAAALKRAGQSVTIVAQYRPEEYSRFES

T12: GRIP1_3, Q9Y3R0
T12 sequence (Q9Y3R0 247-346, limits assumed, looked up): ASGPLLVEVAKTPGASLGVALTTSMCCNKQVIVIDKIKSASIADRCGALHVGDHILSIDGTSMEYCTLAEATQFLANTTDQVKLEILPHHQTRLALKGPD

T13: GRIP1_2, Q9Y3R0
T13 sequence (Q9Y3R0 145-248, limits assumed, looked up): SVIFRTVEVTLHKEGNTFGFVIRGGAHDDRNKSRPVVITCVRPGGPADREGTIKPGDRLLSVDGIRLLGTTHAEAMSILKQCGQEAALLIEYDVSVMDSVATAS

T14: HTRA4, P83105
T14 sequence (P83105 378-476, limits assumed, looked up): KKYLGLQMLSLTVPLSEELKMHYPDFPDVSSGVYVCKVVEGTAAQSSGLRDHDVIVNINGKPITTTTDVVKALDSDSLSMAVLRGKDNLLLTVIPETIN

B1: CNTNAP2, Q9UHC6 (peptide)
chain: IDESKKEWLI
B2: CRIPT, Q9P021 (peptide)
chain: DTKNYKQTSV
B3: NF2, P35240;P35240-1 (peptide)
chain: KSRVAFFEEL

Numbering of substitutions follows the chain as printed.

Sequence of IL16_3, Q14005 (Q14005 1107-1207): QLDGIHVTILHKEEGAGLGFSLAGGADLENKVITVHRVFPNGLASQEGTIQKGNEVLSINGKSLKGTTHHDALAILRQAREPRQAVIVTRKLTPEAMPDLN
Sequence of NHERF2_2, Q15599 (Q15599 142-238): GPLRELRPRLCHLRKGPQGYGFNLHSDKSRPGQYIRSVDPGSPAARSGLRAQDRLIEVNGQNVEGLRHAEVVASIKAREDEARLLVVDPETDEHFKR
Sequence of PARD3_3, Q8TEW0 (Q8TEW0 582-685): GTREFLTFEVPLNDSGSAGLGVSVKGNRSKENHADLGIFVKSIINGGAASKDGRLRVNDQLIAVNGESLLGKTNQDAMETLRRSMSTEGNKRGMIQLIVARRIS

The target in the first experiment is GRIP2_5, Q9C0E4. Nature of the experiment: holdup assay. Details: key: below the threshold = too weak to quantify, mostly under pKd 3.1 to 4. Particulars: plain residues with an end cap or a label only (N-terminal biotin on a linker: ado-ado).
Sequence of GRIP2_5, Q9C0E4 (Q9C0E4 544-642): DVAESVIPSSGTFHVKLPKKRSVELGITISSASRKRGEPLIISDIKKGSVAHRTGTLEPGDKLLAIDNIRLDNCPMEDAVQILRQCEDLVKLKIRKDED
Regarding B1, the pKd result is given as “below the threshold”.
B2: the pKd result is given as “below the threshold”.

The next experiment has as its target T1, SNTG2, Q9NY99. The experiment in a line: holdup assay. Particulars: plain residues with an end cap or a label only (N-terminal biotin on a linker: ado-ado). Details: key: below the threshold = too weak to quantify, mostly under pKd 3.1 to 4.
For the molecule B1, the pKd entry is given as “below the threshold”.
The same measure, in the same setting: for B2 the value was 4.37.

The next experiment addresses T2, APBA1_2, Q02410. The experiment in a line: holdup assay. Details: key: below the threshold = too weak to quantify, mostly under pKd 3.1 to 4. Particulars: plain residues with an end cap or a label only (N-terminal biotin on a linker: ado-ado).
As for B1, the pKd entry is given as “below the threshold”.
Consider B2, for which the pKd is 3.73.

The target in another experiment is T3, APBA1_1, Q02410. The experiment in a line: holdup assay. Details: key: below the threshold = too weak to quantify, mostly under pKd 3.1 to 4. Particulars: plain residues with an end cap or a label only (N-terminal biotin on a linker: ado-ado).
As for B3, the negative-log Kd (pKd) entry is “below the threshold”.
Same read-out and setting: for B1 the value was “below the threshold”; for B2, “below the threshold”.

In the next experiment the target is Inadl_4, Q8NI35. The experiment in a line: holdup assay. Particulars: plain residues with an end cap or a label only (N-terminal biotin on a linker: ado-ado). Details: key: below the threshold = too weak to quantify, mostly under pKd 3.1 to 4.
Sequence of Inadl_4, Q8NI35 (Q8NI35 547-651): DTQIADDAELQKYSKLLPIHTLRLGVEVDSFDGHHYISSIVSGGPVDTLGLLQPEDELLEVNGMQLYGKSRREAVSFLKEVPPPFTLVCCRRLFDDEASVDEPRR
Consider B3, for which the negative-log Kd (pKd) result was “below the threshold”.
The same measure, in the same setting: for B1 the value was “below the threshold”; for B2, “below the threshold”.

The next experiment deals with T4, MPP6, Q9NZW5. The experiment in a line: holdup assay. Details: key: below the threshold = too weak to quantify, mostly under pKd 3.1 to 4. Particulars: plain residues with an end cap or a label only (N-terminal biotin on a linker: ado-ado).
B3: the pKd result is on record as “below the threshold”.
With B1, the pKd is 4.54.
The same measure, in the same setting: for B2 the value was “below the threshold”.

A further experiment deals with T5, PDZD7_3, Q9H5P4. Nature of the experiment: holdup assay. Details: key: below the threshold = too weak to quantify, mostly under pKd 3.1 to 4. Particulars: plain residues with an end cap or a label only (N-terminal biotin on a linker: ado-ado).
In turn, B3 returned a negative logarithm of the Kd (pKd) of 4.12.
The same measure, in the same setting: for B1 the value was “below the threshold”; for B2, 3.94.

Another experiment deals with DLG5_1, Q8TDM6. Nature of the experiment: holdup assay. Particulars: plain residues with an end cap or a label only (N-terminal biotin on a linker: ado-ado). Details: key: below the threshold = too weak to quantify, mostly under pKd 3.1 to 4.
Sequence of DLG5_1, Q8TDM6 (Q8TDM6 617-713): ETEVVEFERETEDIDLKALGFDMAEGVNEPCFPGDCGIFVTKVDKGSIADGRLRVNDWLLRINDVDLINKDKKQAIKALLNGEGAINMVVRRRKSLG
On to B3, for which the pKd result was “below the threshold”.
Still for that read-out and setting: the entry for B1 is “below the threshold”; for B2 it is “below the threshold”.

Another experiment concerns the target IL16_3, Q14005. The experiment in a line: holdup assay. Particulars: plain residues with an end cap or a label only (N-terminal biotin on a linker: ado-ado). Also on record: key: below the threshold = too weak to quantify, mostly under pKd 3.1 to 4.
Consider B3, for which the pKd result is reported as “below the threshold”.
As for B1, the pKd result is on record as “below the threshold”.
Turning to B2, the pKd entry is recorded as “below the threshold”.

The target in another experiment is MAST1, Q9Y2H9. Nature of the experiment: holdup assay. Particulars: plain residues with an end cap or a label only (N-terminal biotin on a linker: ado-ado). Details: key: below the threshold = too weak to quantify, mostly under pKd 3.1 to 4.
Sequence of MAST1, Q9Y2H9 (Q9Y2H9 962-1065): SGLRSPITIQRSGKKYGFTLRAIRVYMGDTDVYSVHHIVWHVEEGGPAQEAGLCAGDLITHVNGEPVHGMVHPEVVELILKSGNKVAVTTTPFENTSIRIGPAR
For B3, the pKd was 4.37.
Same read-out and setting: for B1 the value was “below the threshold”; for B2, 4.82.

Another experiment has as its target NHERF2_2, Q15599. The experiment in a line: holdup assay. Details: key: below the threshold = too weak to quantify, mostly under pKd 3.1 to 4. Particulars: plain residues with an end cap or a label only (N-terminal biotin on a linker: ado-ado).
For the molecule B1, the pKd result was “below the threshold”.
The same measure, in the same setting: the figure for B2 is 3.73.

The target in a further experiment is IL16_1, Q14005. Nature of the experiment: holdup assay. Also on record: key: below the threshold = too weak to quantify, mostly under pKd 3.1 to 4. Particulars: plain residues with an end cap or a label only (N-terminal biotin on a linker: ado-ado).
Sequence of IL16_1, Q14005 (Q14005 210-306): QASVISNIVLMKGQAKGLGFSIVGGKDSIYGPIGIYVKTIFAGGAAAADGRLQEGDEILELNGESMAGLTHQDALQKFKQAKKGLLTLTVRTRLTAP
As to B1, the pKd result is recorded as “below the threshold”.
Same read-out and setting: for B2 the value was “below the threshold”.

A further experiment has as its target DLG2_3, Q15700. Nature of the experiment: holdup assay. Details: key: below the threshold = too weak to quantify, mostly under pKd 3.1 to 4. Particulars: plain residues with an end cap or a label only (N-terminal biotin on a linker: ado-ado).
Regarding B3, the pKd entry is on record as “below the threshold”.
Regarding B1, the negative logarithm of the Kd (pKd) was determined as 3.57.
On the same count and under the same terms, for B2 the value was 5.29.

A further experiment concerns the target T6, MPP7, Q5T2T1. Nature of the experiment: holdup assay. Also on record: key: below the threshold = too weak to quantify, mostly under pKd 3.1 to 4. Particulars: plain residues with an end cap or a label only (N-terminal biotin on a linker: ado-ado).
For the molecule B3, the pKd result was “below the threshold”.
The same measure, in the same setting: for B1 the value was 5.46; for B2, “below the threshold”.

For another experiment, the target named is T7, GRIP1_4, Q9Y3R0. The experiment in a line: holdup assay. Details: key: below the threshold = too weak to quantify, mostly under pKd 3.1 to 4. Particulars: plain residues with an end cap or a label only (N-terminal biotin on a linker: ado-ado).
With B3, the pKd result is on record as “below the threshold”.
Turning to B1, the pKd entry is recorded as “below the threshold”.
Turning to B2, the pKd result was “below the threshold”.

The target in a further experiment is T8, APBA2_2, Q99767. Nature of the experiment: holdup assay. Details: key: below the threshold = too weak to quantify, mostly under pKd 3.1 to 4. Particulars: plain residues with an end cap or a label only (N-terminal biotin on a linker: ado-ado).
As to B3, the pKd entry was “below the threshold”.
The same measure, in the same setting: for B1 the value was “below the threshold”.
Take B2: the pKd result is recorded as “below the threshold”.

For a further experiment, the target named is T9, DFNB31_1, Q9P202. The experiment in a line: holdup assay. Also on record: key: below the threshold = too weak to quantify, mostly under pKd 3.1 to 4. Particulars: plain residues with an end cap or a label only (N-terminal biotin on a linker: ado-ado).
For the molecule B1, the pKd result is on record as “below the threshold”.
On the same count and under the same terms, for B2 the value was 4.32.

In a further experiment the target is T10, ARHGEF11, O15085. The experiment in a line: holdup assay. Details: key: below the threshold = too weak to quantify, mostly under pKd 3.1 to 4. Particulars: plain residues with an end cap or a label only (N-terminal biotin on a linker: ado-ado).
Turning to B3, the pKd came out at 4.32.
B1: the pKd result is “below the threshold”.
In the case of B2, the negative-log Kd (pKd) turned out to be 4.12.

The next experiment concerns the target PARD3_3, Q8TEW0. Nature of the experiment: holdup assay. Particulars: plain residues with an end cap or a label only (N-terminal biotin on a linker: ado-ado). Also on record: key: below the threshold = too weak to quantify, mostly under pKd 3.1 to 4.
B1: the pKd turned out to be 5.28.
For B2, the pKd entry is “below the threshold”.

The target in another experiment is T11, DLG3_3, Q92796. The experiment in a line: holdup assay. Details: key: below the threshold = too weak to quantify, mostly under pKd 3.1 to 4. Particulars: plain residues with an end cap or a label only (N-terminal biotin on a linker: ado-ado).
Take B3: the pKd result is “below the threshold”.
For the molecule B1, the pKd result is “below the threshold”.
As for B2, the pKd was 5.16.

The target in the next experiment is T12, GRIP1_3, Q9Y3R0. Nature of the experiment: holdup assay. Details: key: below the threshold = too weak to quantify, mostly under pKd 3.1 to 4. Particulars: plain residues with an end cap or a label only (N-terminal biotin on a linker: ado-ado).
Consider B3, for which the negative logarithm of the Kd (pKd) result is on record as “below the threshold”.
As for B1, the pKd entry is reported as “below the threshold”.
In the case of B2, the pKd result is recorded as “below the threshold”.

In a further experiment the target is GRID2IP_2, A4D2P6. Nature of the experiment: holdup assay. Particulars: plain residues with an end cap or a label only (N-terminal biotin on a linker: ado-ado). Also on record: key: below the threshold = too weak to quantify, mostly under pKd 3.1 to 4.
Sequence of GRID2IP_2, A4D2P6 (A4D2P6 272-370): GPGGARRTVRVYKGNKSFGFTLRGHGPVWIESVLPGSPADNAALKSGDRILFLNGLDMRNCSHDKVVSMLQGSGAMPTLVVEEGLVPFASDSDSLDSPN
For the molecule B1, the pKd entry is “below the threshold”.
On the same count and under the same terms, the figure for B2 is 4.39.

For another experiment, the target named is T13, GRIP1_2, Q9Y3R0. The experiment in a line: holdup assay. Also on record: key: below the threshold = too weak to quantify, mostly under pKd 3.1 to 4. Particulars: plain residues with an end cap or a label only (N-terminal biotin on a linker: ado-ado).
For the molecule B3, the pKd result is reported as “below the threshold”.
The same measure, in the same setting: the entry for B1 is “below the threshold”.
On to B2, for which the pKd entry was “below the threshold”.

The target of the next experiment is T14, HTRA4, P83105. The experiment in a line: holdup assay. Also on record: key: below the threshold = too weak to quantify, mostly under pKd 3.1 to 4. Particulars: plain residues with an end cap or a label only (N-terminal biotin on a linker: ado-ado).
Regarding B3, the pKd was 4.4.
Regarding B1, the pKd entry is listed as “below the threshold”.
On the same count and under the same terms, the figure for B2 is 3.95.

(Values after publication PMC9482650, “Quantitative fragmentomics allow affinity mapping of interactomes” (Nature Communications, 2022).)
